Assay results as given in patent US20240376170A1 (BRIGHT PEAK THERAPEUTICS, published 2024).
Bridges are numbered along the chain shown (N, C = ends). Primed or numbered codes have the meaning given here. [ ]: non-standard residue; d: D form. Ygp(4) = Tyr with amino-capped PEG8 (O-(8x polyethylene glycol-amino)-tyrosine); Yn3(4) = Tyr with azide-capped PEG9 (O-(9x polyethylene glycol-azido)-tyrosine); Ygp = O-(8x polyethylene glycol-amino)-tyrosine (Tyr, amino-capped PEG8); Yn3 = O-(9x polyethylene glycol-azido)-tyrosine (Tyr, azide-capped PEG9); cleavable peptide‑PEG9‑glutaryl = not defined here; Ygp″ = O-(8x polyethylene glycol-amino)-tyrosine; Yn3″ = O-(9x polyethylene glycol-azido)-tyrosine; PEG4′ = 4x polyethylene glycol; PEG9′ = 9x polyethylene glycol; hSer = N[C@@H](CCO)C(=O)O; Nle = CCCC[C@H](N)C(=O)O

B1: CMP-301, MMP2 cleaved molecule (ligand)
chain: APTSSSTKKTQLQLEHLLLDLQEILNGINNYKNPKLTR[Nle]L[hSer][Yn3(4)]KF[Ygp(4)][Nle]PKKATELKHLQCLEEELKPLEEVL[hSer]LAQSKNFHLRPRDLISNINVIVLELKGSETTF[hSer]CEYADETATIVEFLNRWITFSQSIISTLT
modifications: not fully specified; ends and bridges not checked; also: cleaved by MMP2, product not given here, N-terminus linked to another sequence via PEG9, Glu23 side chain linked to another sequence
B2: CMP-163, MMP2 cleaved molecule (ligand)
chain: APTSSSTKKTQLQLEHLLLDLQKILNGINNYKNPKLTR[Nle]L[hSer][Yn3(4)]KF[Ygp(4)][Nle]PKKATELKHLQCLEEELKPLEEVL[hSer]LAQSKNFHLRPRDLISNINVIVLELKGSETTF[hSer]CEYADETATIVEFLNRWITFSQSIISTLT
modifications: not fully specified; ends and bridges not checked
B3: CMP-165 (ligand)
chain: APTSSSTKKTQLQLEHLLLDLQKILNGINNYKNPKLTR[Nle]L[hSer][Yn3]KF[Ygp][Nle]PKKATELKHLQCLEEELKPLEEVL[hSer]LAQSKNFHLRPRDLISNINVIVLELKGSETTF[hSer]CEYADETATIVEFLNRWITFSQSIISTLT
modifications: bridge N-23; not fully specified (bridges); ends not checked; also: sequence of the cleavable peptide in the bridge not given here
B4: CMP-166, MMP2 cleaved molecule (ligand)
chain: APTSSSTKKTQLQLEHLLLDLQKILNGINNYKNPKLTR[Nle]L[hSer][Yn3]KF[Ygp][Nle]PKKATELKHLQCLEEELKPLEEVL[hSer]LAQSKNFHLRPRDLISNINVIVLELKGSETTF[hSer]CEYADETATIVEFLNRWITFSQSIISTLT
modifications: ends and bridges not checked; also: MMP2 cleaved, cleavage site and linker fragments on N-terminus and Lys23 side chain not given here
B5: CMP-301 (ligand)
chain: GPLGLAG[PEG9′]APTSSSTKKTQLQLEHLLLDLQEILNGINNYKNPKLTR[Nle]L[hSer][Yn3(4)]KF[Ygp(4)][Nle]PKKATELKHLQCLEEELKPLEEVL[hSer]LAQSKNFHLRPRDLISNINVIVLELKGSETTF[hSer]CEYADETATIVEFLNRWITFSQSIISTLT
modifications: lactam N-31; ends not checked
B6: CMP-165, MMP2 cleaved molecule (ligand)
chain: APTSSSTKKTQLQLEHLLLDLQKILNGINNYKNPKLTR[Nle]L[hSer][Yn3]KF[Ygp][Nle]PKKATELKHLQCLEEELKPLEEVL[hSer]LAQSKNFHLRPRDLISNINVIVLELKGSETTF[hSer]CEYADETATIVEFLNRWITFSQSIISTLT
modifications: ends and bridges not checked; also: MMP2 cleaved, cleavage site and linker fragments on N-terminus and Lys23 side chain not given here
B7: CMP-169 (ligand)
chain: APTSSSTKKTQLQLEHLLLDLQEILNGINNYKNPKLTR[Nle]L[hSer][Yn3(4)]KF[Ygp(4)][Nle]PKKATELKHLQCLEEELKPLEEVL[hSer]LAQSKNFHLRPRDLISNINVIVLELKGSETTF[hSer]CEYADETATIVEFLNRWITFSQSIISTLT
modifications: bridge 9-23; not fully specified (bridges); ends not checked; also: linker peptide sequence not given here
B8: CMP-167, MMP2 cleaved molecule (ligand)
chain: APTSSSTKKTQLQLEHLLLDLQKILNGINNYKNPKLTR[Nle]L[hSer][Yn3]KF[Ygp][Nle]PKKATELKHLQCLEEELKPLEEVL[hSer]LAQSKNFHLRPRDLISNINVIVLELKGSETTF[hSer]CEYADETATIVEFLNRWITFSQSIISTLT
modifications: ends and bridges not checked; also: MMP2 cleaved, cleavage site and linker fragments on N-terminus and Lys23 side chain not given here
B9: CMP-169, MMP2 cleaved molecule (ligand)
chain: APTSSSTKKTQLQLEHLLLDLQEILNGINNYKNPKLTR[Nle]L[hSer][Yn3(4)]KF[Ygp(4)][Nle]PKKATELKHLQCLEEELKPLEEVL[hSer]LAQSKNFHLRPRDLISNINVIVLELKGSETTF[hSer]CEYADETATIVEFLNRWITFSQSIISTLT
modifications: not fully specified; ends and bridges not checked; also: cleaved by MMP2, product not given here, Lys9 side chain linked to another sequence via PEG4, Glu23 side chain linked to another sequence
B10: CMP-164, MMP2 cleaved molecule (ligand)
chain: APTSSSTKKTQLQLEHLLLDLQKILNGINNYKNPKLTR[Nle]L[hSer][Yn3]KF[Ygp][Nle]PKKATELKHLQCLEEELKPLEEVL[hSer]LAQSKNFHLRPRDLISNINVIVLELKGSETTF[hSer]CEYADETATIVEFLNRWITFSQSIISTLT
modifications: ends and bridges not checked; also: MMP2 cleaved, cleavage site and linker fragments on N-terminus and Lys23 side chain not given here
B11: CMP-164 (ligand)
chain: APTSSSTKKTQLQLEHLLLDLQKILNGINNYKNPKLTR[Nle]L[hSer][Yn3]KF[Ygp][Nle]PKKATELKHLQCLEEELKPLEEVL[hSer]LAQSKNFHLRPRDLISNINVIVLELKGSETTF[hSer]CEYADETATIVEFLNRWITFSQSIISTLT
modifications: bridge N-23; not fully specified (bridges); ends not checked; also: sequence of the cleavable peptide in the bridge not given here
B12: CMP-167 (ligand)
chain: APTSSSTKKTQLQLEHLLLDLQKILNGINNYKNPKLTR[Nle]L[hSer][Yn3]KF[Ygp][Nle]PKKATELKHLQCLEEELKPLEEVL[hSer]LAQSKNFHLRPRDLISNINVIVLELKGSETTF[hSer]CEYADETATIVEFLNRWITFSQSIISTLT
modifications: bridge N-23; not fully specified (bridges); ends not checked; also: sequence of the cleavable peptide in the bridge not given here
B13: CMP-138 (ligand)
chain: [PEG4′]SGGPGPAGMKGLPGS[PEG4′]APTSSSTKKTQLQLEHLLLDLQ[Nle]ILNGIENYKNPKLTR[Nle]L[hSer][Yn3]KF[Ygp][Nle]PKKATELKHLQCLEEELKPLEEVL[hSer]LAQSKNFHLRPRDLISNINVIVLELKGSETTF[hSer]CEYADETATIVEFLNRWITFSQSIISTLT
modifications: bridge (positions not given here); not fully specified (bridges); ends not checked
B14: CMP-136 (ligand)
chain: [PEG9′]PLGLAG[PEG9′]APTSSSTKKTQLQLEHLLLDLQ[Nle]ILNGIENYKNPKLTR[Nle]L[hSer][Yn3]KF[Ygp][Nle]PKKATELKHLQCLEEELKPLEEVL[hSer]LAQSKNFHLRPRDLISNINVIVLELKGSETTF[hSer]CEYADETATIVEFLNRWITFSQSIISTLT
modifications: bridge N-37; not fully specified (bridges); ends not checked
B15: CMP-151 (ligand)
chain: APTSSSTKKTQLQLEHLLLDLQKILNGINNYKNPKLTR[Nle]L[hSer][Yn3″]KF[Ygp″][Nle]PKKATELKHLQCLEEELKPLEEVL[hSer]LAQSKNFHLRPRDLISNINVIVLELKGSETTF[hSer]CEYADETATIVEFLNRWITFSQSIISTLT
modifications: linker N-23 via cleavable peptide‑PEG9‑glutaryl; reading uncertain

molecular target: T1, IL-2 receptor βγ complex (human, UniProt P14784 27-551; P31785 23-369); assay: cell-based or functional assay
T1 sequence (looked up) 1: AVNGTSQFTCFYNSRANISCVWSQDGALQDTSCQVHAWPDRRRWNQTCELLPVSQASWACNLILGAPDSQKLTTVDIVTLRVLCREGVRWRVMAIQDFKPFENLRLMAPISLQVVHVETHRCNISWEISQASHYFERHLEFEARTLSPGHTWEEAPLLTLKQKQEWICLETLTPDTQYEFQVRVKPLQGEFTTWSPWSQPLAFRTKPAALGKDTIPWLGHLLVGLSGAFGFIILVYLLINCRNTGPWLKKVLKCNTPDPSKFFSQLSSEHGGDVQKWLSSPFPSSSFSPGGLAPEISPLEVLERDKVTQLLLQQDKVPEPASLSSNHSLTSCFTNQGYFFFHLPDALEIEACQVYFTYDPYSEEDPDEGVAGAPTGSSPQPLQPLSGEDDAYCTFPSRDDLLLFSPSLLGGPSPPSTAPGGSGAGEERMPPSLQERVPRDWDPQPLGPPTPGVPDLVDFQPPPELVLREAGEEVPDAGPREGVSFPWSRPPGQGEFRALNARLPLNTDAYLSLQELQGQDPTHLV
T1 sequence (looked up) 2: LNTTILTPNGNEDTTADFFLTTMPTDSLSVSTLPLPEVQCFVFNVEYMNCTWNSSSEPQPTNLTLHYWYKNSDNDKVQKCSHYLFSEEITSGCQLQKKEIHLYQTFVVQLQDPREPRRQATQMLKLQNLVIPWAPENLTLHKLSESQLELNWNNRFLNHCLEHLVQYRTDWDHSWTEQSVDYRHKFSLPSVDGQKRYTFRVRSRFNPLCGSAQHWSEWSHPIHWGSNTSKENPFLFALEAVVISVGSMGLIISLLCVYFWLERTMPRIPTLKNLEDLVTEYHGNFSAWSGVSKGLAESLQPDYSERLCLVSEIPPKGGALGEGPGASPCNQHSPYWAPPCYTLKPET

In order of falling “Average EC50, pSTAT5 Assay (T cells)” value:
1. B5  180 nM
2. B12  176 nM
3. B3  57.4 nM
4. B7  53.4 nM
5. B11  31.4 nM
6. B9  5.39 nM
7. B8  5.31 nM
8. B4  4.36 nM
9. B6  1.42 nM
10. B1  0.883 nM
11. B2  0.76 nM
12. B10  0.61 nM

molecular target: T1, IL-2 receptor βγ complex; assay: cell-based or functional assay; remark: another data set of the same source

In order of rising “Average EC50, pSTAT5 Assay (T cells)” value:
1. B13  20.1 nM
2. B15  28.2 nM
3. B14  40.5 nM

molecular target: T1, IL-2 receptor βγ complex; assay: cell-based or functional assay; remark: another data set of the same source

In order of rising “Average EC50, pSTAT5 Assay in NK cells” value:
1. B13  1.88 nM
2. B14  2.17 nM
3. B15  2.51 nM
